In paper PMC8083607 (National Science Review, 2021):

Tests used:
Experiment in all cases: ELISA
Details in all cases: both partners purified
[1] = target: SARS-CoV RBD (Severe acute respiratory syndrome …, UniProt P59594)
[2] = target: SARS-CoV S2 (SARS-CoV, strain not named (reference …, UniProt P59594))
[3] = target: MERS-CoV S2 (MERS-CoV, strain not named (entry: …, UniProt K9N5Q8))
[4] = target: SARS-CoV-2 S2 (recombinant) (SARS-CoV-2 Wuhan-Hu-1 (MN908947.3 used …, UniProt P0DTC2))
[5] = target: T1, SARS-CoV-2 NTD (recombinant, limits not stated) (SARS-CoV-2 Wuhan-Hu-1 (MN908947.3), UniProt P0DTC2)
T1 construct: also called N-terminal domain

[6] = target: SARS-CoV NTD (SARS-CoV, strain not named (reference …, UniProt P59594))

Sequence of MERS-CoV S2 (MERS-CoV, strain not named (K9N5Q8 whole entry, looked up): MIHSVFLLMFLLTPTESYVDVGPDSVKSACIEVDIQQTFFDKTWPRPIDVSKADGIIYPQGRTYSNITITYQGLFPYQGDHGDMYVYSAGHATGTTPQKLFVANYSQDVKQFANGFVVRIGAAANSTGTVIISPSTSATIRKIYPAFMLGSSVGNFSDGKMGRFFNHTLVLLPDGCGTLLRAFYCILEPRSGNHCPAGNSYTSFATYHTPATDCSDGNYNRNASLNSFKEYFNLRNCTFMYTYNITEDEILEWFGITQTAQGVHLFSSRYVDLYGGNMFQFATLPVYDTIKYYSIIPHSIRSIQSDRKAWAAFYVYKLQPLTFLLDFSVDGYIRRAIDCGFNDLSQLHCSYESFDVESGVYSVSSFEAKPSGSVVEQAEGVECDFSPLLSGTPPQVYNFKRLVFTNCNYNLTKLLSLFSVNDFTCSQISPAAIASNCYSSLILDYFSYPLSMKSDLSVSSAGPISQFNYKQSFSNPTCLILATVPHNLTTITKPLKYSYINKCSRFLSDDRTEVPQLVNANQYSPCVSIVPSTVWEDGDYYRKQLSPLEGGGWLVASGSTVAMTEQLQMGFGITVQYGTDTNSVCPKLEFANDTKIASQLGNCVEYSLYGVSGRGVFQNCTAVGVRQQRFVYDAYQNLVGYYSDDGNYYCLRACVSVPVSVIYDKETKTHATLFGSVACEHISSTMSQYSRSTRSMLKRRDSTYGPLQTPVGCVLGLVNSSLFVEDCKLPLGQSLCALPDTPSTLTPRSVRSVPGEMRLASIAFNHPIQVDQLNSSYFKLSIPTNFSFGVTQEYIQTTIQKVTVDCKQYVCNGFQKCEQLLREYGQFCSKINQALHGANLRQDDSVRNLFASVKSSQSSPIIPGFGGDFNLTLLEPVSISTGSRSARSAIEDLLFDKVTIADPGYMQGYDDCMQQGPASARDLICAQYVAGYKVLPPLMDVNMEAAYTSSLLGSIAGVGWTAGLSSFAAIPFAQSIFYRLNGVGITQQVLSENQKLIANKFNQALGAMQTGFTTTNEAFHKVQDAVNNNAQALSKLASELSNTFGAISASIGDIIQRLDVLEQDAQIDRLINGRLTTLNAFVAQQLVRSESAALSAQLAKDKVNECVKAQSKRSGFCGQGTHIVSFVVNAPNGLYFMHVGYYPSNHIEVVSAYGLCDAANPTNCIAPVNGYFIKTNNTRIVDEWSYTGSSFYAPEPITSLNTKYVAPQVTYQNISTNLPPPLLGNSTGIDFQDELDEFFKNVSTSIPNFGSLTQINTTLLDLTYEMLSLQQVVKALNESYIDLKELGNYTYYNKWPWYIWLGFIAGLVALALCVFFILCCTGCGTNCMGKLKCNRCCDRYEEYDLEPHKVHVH

Binder	binding result [2]	binding result [3]	binding result [4]	binding result [5]	also measured
FC11 (antibody, V domains shown) VH: EVQLLESGGGVVQPGRSLRLSCAASGFTFSYYGMHWVRQAPGTGLEWVAVISYDGSNEYYADSVKGRFTISRDNSKNTLYLQMNSLRAEDTAVYYCAKAMFLGDSSGLTGLDMDVWGQGTTVTVSS VL: DIELTQSPGTLSLSPGERATLSCRASQSVSSYLAWYQQKPGQAPRLLIYDASNRATGIPARFSGSGSGTDFTLTISSLEPEDFALYYCQQRGNWPPTFGGGTKLEIK	–	–	–	–	binding result [1]: binds
FC120 (antibody, V domains shown) VH: EVQLLESGAEVKKPGASVKVSCKASGYTFTSYYMHWVRQAPGQGLEWMGIINPSGGSTSYAQKFQGRVTMTRDTSTSTVYMELSSLRSEDTAVYYCARGGGHALDIWGQGTMVTVSS VL: QSVLTQPPSVSGAPGQKVTISCSGSSSNIGNNYVSWYQQLPGTAPKLLIYDNNKRPSGIPDRFSGSKSGTSATLGITGLQTGDEADYYCGTWDSSLSAWVFGGGTKLTVL	binds	binds	binds	–	–
FC05 (antibody, V domains shown, also called FC05 mAb) VH: VQLLEQSGAEVKKPGASVRVSCKVSGYTLPEVAMHWVRQAPGKGLEWMGGFDPEDGETMYAQKFQGRVTMTEDTSTDTAYMELSSLRSEDTAVYYCATTTPFSSSYWFDPWGQGTLVTVSS VL: QSVLTQAPSVSGAPGQKVTISCSGSSSNIGNNYVSWYQQLPGTAPKLLIYDNNKRPSGIPDRFSGSKSGTSATLGITGLQTGDEADYYCGTWDSSLSAVVFGGGTKLTVL	–	–	–	binds	–
FC124 (antibody, V domains shown) VH: EVQLLESGGGVVQPGRSLRLSCAASGFTFSSYAMHWVRQAPGKGLEWVALISYDGINKYYADSVNGRFTISRDNSKYTLYLQMNSLRAEDTAVYYCARAHRGSYYYGMDVWGQGTMVTVSS VL: DIELTQSPGTLSLSPGERATLYCRASQSVSSSYLAWYQQKPGQAPRLLIYGAFGRAAGIPDRFRGSGSGTQFTLTISRLEPEDSAVYFCQQYGQSPLYSFGQGTKLEIK	binds	binds	binds	–	–
FC122 (antibody, V domains shown) VH: EVQLLESGGGVVQPGRSLRLSCAASGFTFSSYAMHWVRQAPGKGLEWVALISYDGINKYYADSVNGRFTISRDNSKYTLYLQMNSLRAEDTAVYYCARAHRGSYYYGMDVWGQGTMVTVSS VL: DIELTQSPSSLSASVGDSVTITCRGSQIISRYLNWYQQKPGKAPKLLIYAASTLQSGVPSRFSGSGSGTEFTLSISSLEPEDFATYYCQQSYAIPYTFGQGTRLEI	–	–	binds	–	–
FC118 (antibody, V domains shown) VH: EVQLLESGGGVVQPGRSLRLSCAASGFTFSSYAMHWVRQAPGKGLEWVAVISYDGSNKYYADSVKGRFTISRDNSKNTLYLQMNSLRAEDTAVYYCARARGGSYLYGMDVWGQGAMVTVSS VL: DIELTQSPSSLAASVGDTVTITCRASQTIGKYLTWYQKKPGRAPDLLIYAASRLQSGVPSRFSGRASGTEFTLTISSLQPEDFATYFCQHTYRTLSFGPGTKVDLK	binds	binds	binds	–	–
FC06 (antibody, V domains shown) VH: EVQLLESGGGVVQPGRSLRLSCAASGFTFSSYAMHWVRQAPGEGLEWVAVISYDGSNKYYADSVKGRFTISRDNSKNTLYLQMNSLRAGDTAVYYCARLNYYGSGFYYRLGDDYWGQGTLVTVSS VL: DIELTQSPSSLSASEGDRVTITCRASQGIRNDLGWYQQKPGKAPKRLIYGAPSLQSGVPSRFSGSGSGTEFTLTISTLQPEDSATYYCLQHNKYPWTFGQGTKVEIK	–	–	–	binds	–
FC07 (antibody, V domains shown) VH: EVQLLESGGGLVQPGGSLRLSCAASGFTFGSYAMSWVRQAPGKGLEWVSSISGSGGSTYYADSAKGRFTISRDNSKNTLYLQMNSLRAEDTAVYYCAKSPNYDILTGYYNWAGYYFDYWGQGTLVTVSS VL: DIELTQSPGTLSLSPGDRATLSCRASRGVSSNSLAWYRQRPGESPRLVISGASTRATGIPERFSGSGSGTDFSLSISRLQPEDFAVYYCQQYGSFPFTFGPGTTVDV	–	–	–	binds	binding result [6]: binds
